Test results as given in patent US9988424 (DUKE UNIVERSITY, dated 2018).
Residue numbers refer to the chain shown, from its start.

How the values were obtained:
B.63521_V1V2 Tags = target: T1, B.63521_V1V2 Tags; experiment: ELISA, OD405
T1 Env construct: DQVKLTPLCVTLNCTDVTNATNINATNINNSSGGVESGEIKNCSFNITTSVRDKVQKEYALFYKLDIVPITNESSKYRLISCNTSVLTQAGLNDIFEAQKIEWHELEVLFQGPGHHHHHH

G.con gp140CF = target: T2, G.con gp140CF; experiment: ELISA, OD405
T2 construct: also called G.con.env03 gp140CF

B.63521 gp140C = experiment: ELISA, OD405
B.040 gp140C = experiment: ELISA, OD405
B. 684-6 gp140C = experiment: ELISA, OD405
B.HXB/BAL gp140CFI = target: T3, B.HXB/BAL gp140CFI (HIV-1, UniProt P04578 33-680); experiment: ELISA, OD405
T3 construct: also called B.HxB/Ba gp140 CFI

B.62357 140C = target: T4, B.62357 140C; experiment: ELISA, OD405
T4 construct: also called B.62357 gp140C

SIV CPZ US-1 gp140CF = target: T5, SIV CPZ US-1 gp140CF (SIVcpz); experiment: ELISA, OD405
T5 construct: also called US-1 SIVCPZ gp140CF
T5 chain: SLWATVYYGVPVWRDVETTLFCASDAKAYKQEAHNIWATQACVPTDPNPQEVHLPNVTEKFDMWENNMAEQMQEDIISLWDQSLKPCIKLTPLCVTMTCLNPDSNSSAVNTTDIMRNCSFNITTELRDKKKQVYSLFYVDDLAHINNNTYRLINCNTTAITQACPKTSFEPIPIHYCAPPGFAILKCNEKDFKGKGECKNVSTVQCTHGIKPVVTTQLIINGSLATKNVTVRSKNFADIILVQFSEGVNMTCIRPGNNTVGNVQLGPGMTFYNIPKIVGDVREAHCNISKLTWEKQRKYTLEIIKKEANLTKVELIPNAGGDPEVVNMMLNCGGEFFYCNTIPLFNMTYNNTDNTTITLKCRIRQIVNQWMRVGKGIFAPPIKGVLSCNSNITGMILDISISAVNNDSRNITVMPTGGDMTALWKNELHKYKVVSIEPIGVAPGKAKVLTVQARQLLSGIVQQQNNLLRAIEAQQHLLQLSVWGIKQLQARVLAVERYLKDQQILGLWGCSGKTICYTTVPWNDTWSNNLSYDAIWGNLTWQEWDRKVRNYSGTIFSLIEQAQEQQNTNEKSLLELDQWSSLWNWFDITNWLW

Con 6 gp120 = experiment: ELISA, OD405
B. 681-7 gp140C = experiment: ELISA, OD405
AE.A244 gp120 delta 11 = AE.A244 gp120 delta 11 (HIV-1)
AE.92TH023 gp120 gD+ = target: T6, AE.92TH023 gp120 gD+ (HIV-1); experiment: ELISA
T6 construct: domain: gp120; also called AE.92TH023 gp12 gD+

AE.A244 gD+ gp120 = target: T7, AE.A244 gD+ gp120 (HIV-1); experiment: ELISA
T7 construct: domain: gp120; also called AE.A244 gp120gD+

AE.97CNG2XF gp140CF = target: T8, AE.97CNG2XF gp140CF (HIV-1); experiment: ELISA
T8 construct: also called E.97CNGX2F gp140CF

C.1086 gp120 = C.1086 gp120 (HIV-1); experiment: ELISA
[1] = target: T9, J08 A.92RW020V1V2/N156QN160Q (HIV-1); experiment: ELISA, mAb 0.001-100 ug/ml on coated V1V2 scaffold, OD450
T9 construct: also called J08 A.92RW020VV1V2/N156QN160Q

[2] = target: T10, gp70 B.HXB2/BALV1V2/N156QN160Q (murine leukemia virus; HIV-1); experiment: as above
T10 chain: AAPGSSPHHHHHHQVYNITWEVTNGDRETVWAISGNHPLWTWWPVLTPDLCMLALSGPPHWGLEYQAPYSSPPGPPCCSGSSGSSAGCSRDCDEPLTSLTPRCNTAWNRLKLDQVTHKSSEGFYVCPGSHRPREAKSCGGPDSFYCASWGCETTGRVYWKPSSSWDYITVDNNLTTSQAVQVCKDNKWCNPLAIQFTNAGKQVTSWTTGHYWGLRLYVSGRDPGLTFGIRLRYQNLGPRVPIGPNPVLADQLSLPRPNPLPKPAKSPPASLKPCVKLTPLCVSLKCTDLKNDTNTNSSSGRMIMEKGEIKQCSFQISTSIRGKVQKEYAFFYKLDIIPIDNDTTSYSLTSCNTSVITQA

J08 B.HXB2/BALV1V2 = target: T11, J08 B.HXB2/BALV1V2 (HIV-1); experiment: as above
T11 construct: also called J08 B.HXB/BAL V1V2
T11 chain: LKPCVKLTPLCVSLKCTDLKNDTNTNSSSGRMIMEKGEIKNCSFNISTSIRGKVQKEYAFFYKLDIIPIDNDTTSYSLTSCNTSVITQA

[3] = target: T12, J08 B.HXB2/BALV1V2N156QN160Q (HIV-1); experiment: as above
T12 chain: T11 chain with N41Q, N45Q

A.9004SS V1/V2 tags = target: T13, A.9004SS V1/V2 tags; experiment: ELISA, OD405 at 10 ug/ml
T13 V1V2 tags construct: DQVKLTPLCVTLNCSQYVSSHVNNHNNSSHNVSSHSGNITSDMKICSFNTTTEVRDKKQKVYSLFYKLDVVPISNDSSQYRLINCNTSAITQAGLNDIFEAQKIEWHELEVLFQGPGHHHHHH

B1: CH59 (antibody, V domains shown)
VH: EVQLVESGGGLVQPGRSLRLSCAASGFTFDDGAMHWVRQAPGKGLEWVSGISWNSNIIAYADSVKGRFTISRDNAKNSLYLEMNSLRVEDTALYYCAKDSPRGELPLNYWGQGTLVTVSS
VL: SYELTQPPSVSVSPGQTARITCSGDALPKNYAYWYQQKSGQAPVLVIYEDSKRPSGIPERFSGSSSGTMATLTISGAQVEDEADYYCYSTDSSGNHRVFGGGTKLTVL
notes: also called mAb CH59
binding result (B.63521_V1V2 Tags): no binding (tested: 10 ug/ml)
binding result (G.con gp140CF): no binding (tested: 10 ug/ml)
binding result (B.63521 gp140C): no binding (tested: 10 ug/ml)
binding result (B.040 gp140C): no binding (tested: 10 ug/ml)
binding result (B. 684-6 gp140C): no binding (tested: 10 ug/ml)
binding result (B.HXB/BAL gp140CFI): no binding (tested: 10 ug/ml)
binding result (B.62357 140C): no binding (tested: 10 ug/ml)
binding result (SIV CPZ US-1 gp140CF): no binding (tested: 10 ug/ml)
binding result (Con 6 gp120): no binding (tested: 10 ug/ml)
binding result (B. 681-7 gp140C): no binding (tested: 10 ug/ml)
koff (AE.A244 gp120 delta 11): 0.00013 s⁻¹
kon (AE.A244 gp120 delta 11): 58300 M⁻¹ s⁻¹
EC50 (AE.92TH023 gp120 gD+): 0.023 µg/mL
EC50 (AE.A244 gD+ gp120): 0.01 µg/mL
EC50 (AE.97CNG2XF gp140CF): 0.066 µg/mL
EC50 (C.1086 gp120): 0.02 µg/mL
binding result [1]: no binding (tested: 100 ug/ml)
binding result [2]: no binding (tested: 100 ug/ml)
binding result (J08 B.HXB2/BALV1V2): no binding (tested: 100 ug/ml)
binding result [3]: no binding (tested: 100 ug/ml)

B2: PG9 reverted unmutated ancestor antibody (antibody, V domains shown)
VH: QVQLVESGGGVVQPGRSLRLSCAASGFTFSSYGMHWVRQAPGKGLEWVAVISYDGSNKYYADSVKGRFTISRDNSKNTLYLQMNSLRAEDTAVYYCAREAGGPDYRNGYNYYDFWSGYYNYYYMDVWGKGTTVTVSS
VL: QSALTQPASVSGSPGQSITISCTGTSSDVGSYNLVSWYQQHPGKAPKLMIYEVSKRPSGVSNRFSGSKSGNTASLTISGLQAEDEADYYCCSLTSTRRWVFGGGTKLTVL
notes: also called PG9 RUA; PG9_RUA
binding result (A.9004SS V1/V2 tags): no binding (tested: 10 ug/ml)
